Test results from patent publication US20260209386A1 (MYTHIC THERAPEUTICS, published 2026).
Blank lines part the entries; values can stand above or below the binder they belong to.

Experiments:
[1] = target: T1, Human PTK7 Protein, His Tag (Acro Biosystems) (human, UniProt Q13308 31-704); test: BLI (Octet), antibody on anti-human Fc sensor, 50 nM PTK7; 2 = substantially similar binding
T1 construct: Bought His-tagged recombinant human PTK7; also called CCK4; Tyrosine-protein kinase-like 7
T1 sequence: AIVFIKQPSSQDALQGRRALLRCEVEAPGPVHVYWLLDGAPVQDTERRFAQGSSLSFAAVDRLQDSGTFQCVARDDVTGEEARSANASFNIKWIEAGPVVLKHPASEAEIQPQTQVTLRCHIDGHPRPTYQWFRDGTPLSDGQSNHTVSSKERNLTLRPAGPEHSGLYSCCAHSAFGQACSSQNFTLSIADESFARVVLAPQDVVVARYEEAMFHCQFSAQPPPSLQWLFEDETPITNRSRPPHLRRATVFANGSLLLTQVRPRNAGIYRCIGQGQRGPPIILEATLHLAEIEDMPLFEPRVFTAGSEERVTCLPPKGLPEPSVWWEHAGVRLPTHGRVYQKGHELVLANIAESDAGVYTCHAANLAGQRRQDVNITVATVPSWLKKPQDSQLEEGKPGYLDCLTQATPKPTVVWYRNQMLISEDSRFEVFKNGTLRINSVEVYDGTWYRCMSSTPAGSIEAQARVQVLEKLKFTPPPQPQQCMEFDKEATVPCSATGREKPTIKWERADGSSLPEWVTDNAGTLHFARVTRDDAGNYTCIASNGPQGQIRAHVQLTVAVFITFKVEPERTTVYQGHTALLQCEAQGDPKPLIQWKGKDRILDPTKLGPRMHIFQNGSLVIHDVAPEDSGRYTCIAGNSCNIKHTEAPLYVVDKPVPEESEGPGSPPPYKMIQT

[2] = target: T2, Human PTK7 Protein, His Tag, Acro Biosystems (human, UniProt Q13308 31-704); test: BLI (Octet), antibody on anti-human Fc sensor, 50 nM PTK7, dissociation at pH 7.4 or 5.4; 1 = pH dependent binding relative to parent
T2 construct: Bought protein; also called CCK4; not shown: His tag
T2 sequence: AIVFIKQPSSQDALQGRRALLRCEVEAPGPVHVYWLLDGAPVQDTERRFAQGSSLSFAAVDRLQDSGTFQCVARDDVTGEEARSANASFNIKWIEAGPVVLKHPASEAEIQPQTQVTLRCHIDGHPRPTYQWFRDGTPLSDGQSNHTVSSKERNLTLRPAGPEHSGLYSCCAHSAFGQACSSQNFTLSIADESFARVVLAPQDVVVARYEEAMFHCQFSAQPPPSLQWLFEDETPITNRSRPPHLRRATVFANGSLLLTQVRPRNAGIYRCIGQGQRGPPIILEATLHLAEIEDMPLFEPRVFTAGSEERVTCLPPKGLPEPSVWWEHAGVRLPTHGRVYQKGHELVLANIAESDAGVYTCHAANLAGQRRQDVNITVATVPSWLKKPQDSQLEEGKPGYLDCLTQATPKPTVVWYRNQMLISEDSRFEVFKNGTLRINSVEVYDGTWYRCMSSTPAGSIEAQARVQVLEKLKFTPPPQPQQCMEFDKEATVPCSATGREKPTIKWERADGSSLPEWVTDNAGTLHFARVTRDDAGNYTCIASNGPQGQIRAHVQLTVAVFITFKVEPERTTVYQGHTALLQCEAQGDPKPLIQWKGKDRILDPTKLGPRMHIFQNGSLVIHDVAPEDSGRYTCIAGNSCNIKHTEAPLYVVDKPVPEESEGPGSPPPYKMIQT

B1: MYT10988 (antibody, V domains shown)
VH: EVQLVESGGGLVQPGGSLRLSCTASGFSLSSYAMGWVRQAPGKGLEWVGFINAGGNTYYANWAKGRFTISRDTSKNTVYLQMNSLRAEDTAVYFCARRYSRASGWYHLWGQGTLVTVSS
VL: EIVMTQSPSTLSASVGDRVIITCQASQSISSYLAWYQQKPGKAPKLLIYAASTLASGVPSRFSGSGSGAEFTLTISSLQPDDFATYYCQSYSYSSGIDYGDVFGQGTKLTVL
notes: MYT9359 HC variant; captured on anti-human Fc sensor
binding result [1]: binds

B2: MYT10954 (antibody, V domains shown)
VH: EVQLVESGGGLVQPGGSLRLSCTASGFSHSSYAMGWVRQAPGKGLEWVGFINAGGNTYYANWAKGRFTISRDTSKNTVYLQMNSLRAEDTAVYFCARRYSRASGWYDLWGQGTLVTVSS
VL: EIVMTQSPSTLSASVGDRVIITCQASQSISSYLAWYQQKPGKAPKLLIYAASTLASGVPSRFSGSGSGAEFTLTISSLQPDDFATYYCQSYSYSSGIDYGDVFGQGTKLTVL
notes: as for B1
binding result [1]: binds

B3: MYT10956 (antibody, V domains shown)
VH: EVQLVESGGGLVQPGGSLRLSCTASGFSLSHYAMGWVRQAPGKGLEWVGFINAGGNTYYANWAKGRFTISRDTSKNTVYLQMNSLRAEDTAVYFCARRYSRASGWYDLWGQGTLVTVSS
VL: EIVMTQSPSTLSASVGDRVIITCQASQSISSYLAWYQQKPGKAPKLLIYAASTLASGVPSRFSGSGSGAEFTLTISSLQPDDFATYYCQSYSYSSGIDYGDVFGQGTKLTVL
notes: as for B1
binding result [1]: binds

B4: MYT10953 (antibody, V domains shown)
VH: EVQLVESGGGLVQPGGSLRLSCTASGFHLSSYAMGWVRQAPGKGLEWVGFINAGGNTYYANWAKGRFTISRDTSKNTVYLQMNSLRAEDTAVYFCARRYSRASGWYDLWGQGTLVTVSS
VL: EIVMTQSPSTLSASVGDRVIITCQASQSISSYLAWYQQKPGKAPKLLIYAASTLASGVPSRFSGSGSGAEFTLTISSLQPDDFATYYCQSYSYSSGIDYGDVFGQGTKLTVL
notes: as for B1
binding result [1]: binds

B5: MYT11221 (antibody, V domains shown)
VH: EVQLVESGGGLVQPGGSLRLSCTASGIDLSSYVMGWVRQAPGKGLEWVGYIYGGGGTYYATWARGRFTISRDTSKNTVYLQMNSLRAEDTAVYFCARAAADFYFNLWGQGTLVTVSS
VL: EIVMTQSPSTLSASVGDRVIITCQHSQSISSYLAWYQQKPGKAPKLLIYDISDLASGVPSRFSGSGSGAEFTLTISSLQPDDFATYYCQSYYWISNSGAAFGQGTKLTVL
notes: LC variant of MYT9460, sub at LCV pos 25 (L1 02)
binding result [2]: binds

The remaining lines, values ahead:

binding result [2]: binds
B6: MYT11244 (antibody, V domains shown)
VH: EVQLVESGGGLVQPGGSLRLSCTASGIDLSSYVMGWVRQAPGKGLEWVGYIYGGGGTYYATWARGRFTISRDTSKNTVYLQMNSLRAEDTAVYFCARAAADFYFNLWGQGTLVTVSS
VL: EIVMTQSPSTLSASVGDRVIITCQASQSISSYLAWYQQKPGKAPKLLIYDISDLASGVPSRFSGSGSGAEFTLTISSLQPDDFATYYCQSYYWIHNSGAAFGQGTKLTVL
notes: LC variant of MYT9460, sub at LCV pos 95 (L3 07)

binding result [2]: binds
B7: MYT11236 (antibody, V domains shown)
VH: EVQLVESGGGLVQPGGSLRLSCTASGIDLSSYVMGWVRQAPGKGLEWVGYIYGGGGTYYATWARGRFTISRDTSKNTVYLQMNSLRAEDTAVYFCARAAADFYFNLWGQGTLVTVSS
VL: EIVMTQSPSTLSASVGDRVIITCQASQSISSYLAWYQQKPGKAPKLLIYDISDLHSGVPSRFSGSGSGAEFTLTISSLQPDDFATYYCQSYYWISNSGAAFGQGTKLTVL
notes: LC variant of MYT9460, sub at LCV pos 55 (L2 06)

binding result [2]: binds
B8: MYT11229 (antibody, V domains shown)
VH: EVQLVESGGGLVQPGGSLRLSCTASGIDLSSYVMGWVRQAPGKGLEWVGYIYGGGGTYYATWARGRFTISRDTSKNTVYLQMNSLRAEDTAVYFCARAAADFYFNLWGQGTLVTVSS
VL: EIVMTQSPSTLSASVGDRVIITCQASQSISSYHAWYQQKPGKAPKLLIYDISDLASGVPSRFSGSGSGAEFTLTISSLQPDDFATYYCQSYYWISNSGAAFGQGTKLTVL
notes: LC variant of MYT9460, sub at LCV pos 33 (L1 10)

binding result [2]: binds
B9: MYT11249 (antibody, V domains shown)
VH: EVQLVESGGGLVQPGGSLRLSCTASGIDLSSYVMGWVRQAPGKGLEWVGYIYGGGGTYYATWARGRFTISRDTSKNTVYLQMNSLRAEDTAVYFCARAAADFYFNLWGQGTLVTVSS
VL: EIVMTQSPSTLSASVGDRVIITCQASQSISSYLAWYQQKPGKAPKLLIYDISDLASGVPSRFSGSGSGAEFTLTISSLQPDDFATYYCQSYYWISNSGAHFGQGTKLTVL
notes: LC variant of MYT9460, sub at LCV pos 100 (L3 12)
